Experimental data published in PMC4463452, “Olfactomedin-1 Has a V-shaped Disulfide-linked Tetrameric Structure*^([image sbox.jpg])” (The Journal of Biological Chemistry, 2015).

Target: the molecule itself
Assay: SEC-MALS; analytical Superdex200 5/150, room temperature, GF buffer (150 mM NaCl, 20 mM HEPES, pH 7.5); oligomeric state of the disulfide-linked assembly

B1: full-length Olfm1 (mouse olfactomedin-1, isoform 1, residues 17-478) (natural protein, UniProt O88998 17-478, looked up)
chain: MITNWMSQTLPSLVGLNTTRLSAASGGTLDRSTGVLPTNPEESWQVYSSAQDSEGRCICTVVAPQQTMCSRDARTKQLRQLLEKVQNMSQSIEVLDRRTQRDLQYVEKMENQMKGLETKFKQVEESHKQHLARQFKAIKAKMDELRPLIPVLEEYKADAKLVLQFKEEVQNLTSVLNELQEEIGAYDYDELQSRVSNLEERLRACMQKLACGKLTGISDPVTVKTSGSRFGSWMTDPLAPEGDNRVWYMDGYHNNRFVREYKSMVDFMNTDNFTSHRLPHPWSGTGQVVYNGSIYFNKFQSHIIIRFDLKTEAILKTRSLDYAGYNNMYHYAWGGHSDIDLMVDENGLWAVYATNQNAGNIVISKLDPVSLQILQTWNTSYPKRSAGEAFIICGTLYVTNGYSGGTKVHYAYQTNASTYEYIDIPFQNKYSHISMLDYNPKDRALYAWNNGHQTLYNVTLFH
modifications: N-linked glycans (eight predicted); interprotein disulfides
notes: the C-terminal VIRSDEL segment is not included; the native signal peptide is replaced by an N-terminal cystatin secretion signal of the vector pUPE107.03; also called noelin; pancortin; source: N-acetylglucosaminyltransferase I-deficient, EBNA1-expressing HEK293 cells, transient expression, secreted; purified (nickel-nitrilotriacetic acid, Superdex200 gel filtration); also unpurified in …
Question: For B1, which “stoichiometry N” value is on record?
Answer: The value was 4.
